Data on two substances can be found in patent US6670147.

For experiment [1], the target named is nonmutated (wild-type) FX (UniProt P00742). In words: cell-based or functional assay.
Experiment [2] addresses mutated factor X (human FX in which amino acid 194 has been mutated from Arg to Tyr) (human) (UniProt P00742). As to the kind of experiment: cell-based or functional assay.

Take Russel's viper venom (RVV): the coagulation time (recalcification time in FX-deficient plasma) in experiment [1] came to 50 s.

In the case of “prostate-specific antigen (PSA) (from UniProt P07288 25-261) (enzyme)”, the coagulation time (recalcification time in FX-deficient plasma) in experiment [2] came out at 50 s.
